Tests used:
Grb2 SH2 = Grb2 SH2 (UniProt P62993); assay: SH2 binding enrichment of the phosphorylated peptide, bacterial display (enrichment ratio); higher = better substrate or ligand; peptides without Tyr show the background
c-Src SH2 = assay: as above
SHP2-C SH2 = assay: as above
Fes = Fes (UniProt P07332); assay: phosphorylation enrichment, bacterial display (enrichment ratio); higher = better substrate or ligand; peptides without Tyr show the background
Fer (mouse) = assay: as above
c-Abl (mouse) = assay: as above
FGFR1 = FGFR1 (UniProt P11362); assay: as above
FGFR1, sequence (P11362 whole entry, looked up): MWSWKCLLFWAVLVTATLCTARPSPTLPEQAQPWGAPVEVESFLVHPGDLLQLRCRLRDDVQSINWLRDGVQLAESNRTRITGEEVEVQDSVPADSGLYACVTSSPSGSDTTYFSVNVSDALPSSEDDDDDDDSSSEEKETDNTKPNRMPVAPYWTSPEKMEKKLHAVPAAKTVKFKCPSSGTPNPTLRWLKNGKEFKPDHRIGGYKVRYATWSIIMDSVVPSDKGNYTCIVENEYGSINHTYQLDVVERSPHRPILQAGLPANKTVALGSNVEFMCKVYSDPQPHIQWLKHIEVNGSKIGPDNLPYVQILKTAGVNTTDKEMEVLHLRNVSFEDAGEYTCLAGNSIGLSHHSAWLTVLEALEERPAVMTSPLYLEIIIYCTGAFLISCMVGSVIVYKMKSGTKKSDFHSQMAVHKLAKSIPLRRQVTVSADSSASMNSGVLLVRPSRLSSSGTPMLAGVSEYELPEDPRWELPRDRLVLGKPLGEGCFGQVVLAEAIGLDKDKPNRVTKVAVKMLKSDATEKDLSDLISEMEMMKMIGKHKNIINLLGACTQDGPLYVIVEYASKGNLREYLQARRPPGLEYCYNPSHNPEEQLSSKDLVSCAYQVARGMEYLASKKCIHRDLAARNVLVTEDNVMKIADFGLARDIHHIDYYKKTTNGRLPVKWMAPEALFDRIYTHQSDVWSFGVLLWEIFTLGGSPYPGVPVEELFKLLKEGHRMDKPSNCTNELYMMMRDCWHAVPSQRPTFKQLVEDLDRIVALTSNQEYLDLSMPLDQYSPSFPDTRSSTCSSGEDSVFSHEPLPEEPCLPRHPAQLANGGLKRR

EPHB2 = EPHB2 (UniProt P29323); assay: as above
Jak2 = Jak2 (UniProt O60674); assay: as above
Jak2, sequence (O60674 whole entry, looked up): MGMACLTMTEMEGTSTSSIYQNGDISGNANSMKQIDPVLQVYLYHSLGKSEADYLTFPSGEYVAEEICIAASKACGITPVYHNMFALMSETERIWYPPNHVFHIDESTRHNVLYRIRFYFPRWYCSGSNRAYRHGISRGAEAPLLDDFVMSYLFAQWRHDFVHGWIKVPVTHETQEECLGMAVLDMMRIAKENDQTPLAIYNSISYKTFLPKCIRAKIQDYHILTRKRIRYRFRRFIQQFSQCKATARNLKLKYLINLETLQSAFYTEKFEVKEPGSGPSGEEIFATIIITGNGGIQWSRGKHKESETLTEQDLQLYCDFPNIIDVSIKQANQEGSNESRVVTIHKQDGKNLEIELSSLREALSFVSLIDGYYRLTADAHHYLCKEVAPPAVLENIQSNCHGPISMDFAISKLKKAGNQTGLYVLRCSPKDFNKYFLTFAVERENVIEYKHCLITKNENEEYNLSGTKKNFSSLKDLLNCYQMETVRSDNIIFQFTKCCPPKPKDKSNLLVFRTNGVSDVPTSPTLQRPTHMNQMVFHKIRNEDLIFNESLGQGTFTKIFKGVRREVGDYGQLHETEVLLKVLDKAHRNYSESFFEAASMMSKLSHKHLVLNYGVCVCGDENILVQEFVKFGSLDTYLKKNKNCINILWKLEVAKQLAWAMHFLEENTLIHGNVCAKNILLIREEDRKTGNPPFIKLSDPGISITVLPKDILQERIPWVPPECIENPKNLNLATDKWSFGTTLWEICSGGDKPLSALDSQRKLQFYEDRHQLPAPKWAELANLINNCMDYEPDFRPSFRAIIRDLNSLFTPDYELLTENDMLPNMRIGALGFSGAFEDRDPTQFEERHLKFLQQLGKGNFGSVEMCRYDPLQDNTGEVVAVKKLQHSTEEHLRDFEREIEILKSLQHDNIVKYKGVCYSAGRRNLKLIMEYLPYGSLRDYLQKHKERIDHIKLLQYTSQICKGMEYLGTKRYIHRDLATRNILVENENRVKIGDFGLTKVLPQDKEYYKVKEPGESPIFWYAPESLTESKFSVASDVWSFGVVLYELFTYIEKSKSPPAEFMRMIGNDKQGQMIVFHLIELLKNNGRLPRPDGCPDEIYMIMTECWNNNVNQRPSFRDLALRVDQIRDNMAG

Fyn = Fyn (UniProt P06241); assay: as above
MERTK = MERTK (UniProt Q12866); assay: as above
MERTK, sequence (Q12866 whole entry, looked up): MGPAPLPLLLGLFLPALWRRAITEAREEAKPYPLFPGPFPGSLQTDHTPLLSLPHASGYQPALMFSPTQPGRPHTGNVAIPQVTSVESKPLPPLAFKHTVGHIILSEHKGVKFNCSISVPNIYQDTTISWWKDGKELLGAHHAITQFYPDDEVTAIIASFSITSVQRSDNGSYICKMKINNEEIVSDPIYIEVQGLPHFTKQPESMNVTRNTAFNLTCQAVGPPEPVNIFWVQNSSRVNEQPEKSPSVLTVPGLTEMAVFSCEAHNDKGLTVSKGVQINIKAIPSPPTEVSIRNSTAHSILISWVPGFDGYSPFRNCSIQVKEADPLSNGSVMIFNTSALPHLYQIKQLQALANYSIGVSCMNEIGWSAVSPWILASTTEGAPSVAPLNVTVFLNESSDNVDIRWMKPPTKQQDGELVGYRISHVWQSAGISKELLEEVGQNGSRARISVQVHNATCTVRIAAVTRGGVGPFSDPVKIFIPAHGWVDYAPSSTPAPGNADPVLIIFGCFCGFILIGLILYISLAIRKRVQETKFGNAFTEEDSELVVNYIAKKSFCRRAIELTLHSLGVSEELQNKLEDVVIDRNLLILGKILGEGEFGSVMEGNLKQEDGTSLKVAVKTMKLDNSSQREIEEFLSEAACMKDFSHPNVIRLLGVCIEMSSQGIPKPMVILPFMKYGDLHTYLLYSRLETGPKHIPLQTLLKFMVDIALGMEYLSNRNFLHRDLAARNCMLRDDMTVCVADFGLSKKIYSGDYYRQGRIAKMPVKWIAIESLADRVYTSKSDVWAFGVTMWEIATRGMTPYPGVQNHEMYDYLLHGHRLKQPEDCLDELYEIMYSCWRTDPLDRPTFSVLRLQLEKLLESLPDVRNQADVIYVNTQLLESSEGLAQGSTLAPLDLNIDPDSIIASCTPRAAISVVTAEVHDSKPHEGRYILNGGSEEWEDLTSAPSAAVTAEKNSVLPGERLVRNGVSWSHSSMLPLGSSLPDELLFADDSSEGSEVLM

c-Src = assay: as above
Hck = Hck (UniProt P08631); assay: as above
Hck, sequence (P08631 whole entry, looked up): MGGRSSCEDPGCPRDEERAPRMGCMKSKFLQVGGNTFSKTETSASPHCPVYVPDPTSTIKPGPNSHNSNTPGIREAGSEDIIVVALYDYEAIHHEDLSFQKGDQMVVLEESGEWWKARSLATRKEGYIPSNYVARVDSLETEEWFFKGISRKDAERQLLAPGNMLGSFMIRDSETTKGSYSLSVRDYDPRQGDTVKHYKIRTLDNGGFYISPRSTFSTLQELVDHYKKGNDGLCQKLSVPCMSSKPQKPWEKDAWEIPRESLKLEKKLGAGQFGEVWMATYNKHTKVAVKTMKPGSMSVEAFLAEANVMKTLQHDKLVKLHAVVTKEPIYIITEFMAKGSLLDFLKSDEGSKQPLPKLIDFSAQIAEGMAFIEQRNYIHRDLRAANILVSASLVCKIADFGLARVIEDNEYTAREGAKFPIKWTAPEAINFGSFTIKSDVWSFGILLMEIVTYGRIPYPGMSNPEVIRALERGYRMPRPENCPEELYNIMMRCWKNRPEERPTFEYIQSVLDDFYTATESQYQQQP

FGFR3 = FGFR3 (UniProt P22607); assay: as above
EPHB1 = EPHB1 (UniProt P54762); assay: as above
EPHB1, sequence (P54762 whole entry, looked up): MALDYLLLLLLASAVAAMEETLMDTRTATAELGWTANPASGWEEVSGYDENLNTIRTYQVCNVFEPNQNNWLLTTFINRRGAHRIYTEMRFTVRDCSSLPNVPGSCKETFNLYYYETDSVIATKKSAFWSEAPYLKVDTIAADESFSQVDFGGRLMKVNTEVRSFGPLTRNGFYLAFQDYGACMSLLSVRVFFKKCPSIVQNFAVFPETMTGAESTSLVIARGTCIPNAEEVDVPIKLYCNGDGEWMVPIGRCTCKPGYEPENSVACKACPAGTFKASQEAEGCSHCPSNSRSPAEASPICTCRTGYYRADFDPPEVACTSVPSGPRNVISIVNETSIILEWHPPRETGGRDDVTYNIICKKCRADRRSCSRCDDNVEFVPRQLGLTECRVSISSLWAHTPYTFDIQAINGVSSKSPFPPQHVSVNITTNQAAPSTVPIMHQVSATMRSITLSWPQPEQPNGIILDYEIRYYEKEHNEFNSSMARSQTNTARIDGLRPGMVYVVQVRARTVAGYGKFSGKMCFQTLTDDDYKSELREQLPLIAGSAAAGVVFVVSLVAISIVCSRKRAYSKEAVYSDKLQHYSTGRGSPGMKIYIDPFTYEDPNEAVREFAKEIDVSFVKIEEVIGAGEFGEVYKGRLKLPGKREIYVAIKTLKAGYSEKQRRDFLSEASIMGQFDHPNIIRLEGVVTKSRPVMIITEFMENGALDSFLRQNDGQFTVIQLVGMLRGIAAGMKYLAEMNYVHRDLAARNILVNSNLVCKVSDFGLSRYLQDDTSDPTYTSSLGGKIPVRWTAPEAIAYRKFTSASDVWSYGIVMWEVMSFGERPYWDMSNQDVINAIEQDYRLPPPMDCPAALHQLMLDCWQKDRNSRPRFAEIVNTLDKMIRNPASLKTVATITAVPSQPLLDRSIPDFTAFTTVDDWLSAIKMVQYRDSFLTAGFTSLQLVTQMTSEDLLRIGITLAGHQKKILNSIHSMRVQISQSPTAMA

AncSZ = assay: as above
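Throughout, for SH2 binding enrichment of the phosphorylated peptide, bacterial display: peptide library displayed on the E. coli surface as eCPX fusions, selected cells deep-sequenced, score is each peptide's frequency after selection divided by its frequency in the input.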
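Throughout, for phosphorylation enrichment, bacterial display: 11-residue human phosphosite peptides and single-mutation variants displayed on the E. coli surface, counted by deep sequencing, each peptide's frequency after selection divided by its frequency in the unselected input library; frequency after pTyr selection over input frequency; kinase dosed for 20-30% of maximal phosphorylation in three min.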

Grb2 SH2, sequence (P62993 whole entry, looked up): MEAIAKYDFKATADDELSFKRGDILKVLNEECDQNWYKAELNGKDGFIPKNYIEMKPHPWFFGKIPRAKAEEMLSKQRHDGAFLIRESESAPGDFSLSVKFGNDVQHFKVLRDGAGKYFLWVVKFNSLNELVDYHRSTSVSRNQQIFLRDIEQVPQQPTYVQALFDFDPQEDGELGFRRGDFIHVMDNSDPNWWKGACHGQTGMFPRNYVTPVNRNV

| Sequence | SH2 binding enrichment (Grb2 SH2) | SH2 binding enrichment (c-Src SH2) | SH2 binding enrichment (SHP2-C SH2) | phosphorylation enrichment (Fes) | phosphorylation enrichment (Fer (mouse)) | phosphorylation enrichment (c-Abl (mouse)) | phosphorylation enrichment (FGFR1) | phosphorylation enrichment (EPHB2) | phosphorylation enrichment (Jak2) | phosphorylation enrichment (Fyn) | phosphorylation enrichment (MERTK) | phosphorylation enrichment (c-Src) | phosphorylation enrichment (Hck) | phosphorylation enrichment (FGFR3) | phosphorylation enrichment (EPHB1) | phosphorylation enrichment (AncSZ) |
| --- | --- | --- | --- | --- | --- | --- | --- | --- | --- | --- | --- | --- | --- | --- | --- | --- |
| VYLGAYDHFLP [SLC22A5_Y486_R488H] | 0.755 | 0.757 | 4.29 | 1.25 | 7.24 | 2.69 | 1.6 | 7.25 | 1.39 | 6.16 | 9.45 | 6.2 | 5.47 | 1.62 | 4.38 | 2.28 |
| PFNAEYGGGGG [AKR1B10_Y316] | 0.554 | 0.379 | 0.417 | 1.49 | 0.871 | 0.43 | 1.06 | 0.693 | 0.627 | 1.14 | 0.879 | 0.285 | 1.66 | 0.802 | 1.35 | 1.19 |
| EESSHCSTEKE [ADAR_Y587_Y587C] | 0.81 | 0.562 | 0.668 | 1.01 | 0.424 | 0.559 | 0.593 | 0.683 | 0.8 | 0.598 | 0.502 | 0.5 | 0.598 | 0.663 | 0.631 | 1.06 |
| NFPGGYSGSVK [MCPH1_Y606_L602F] | 0.802 | 0.59 | 0.667 | 0.547 | 0.368 | 0.529 | 0.486 | 0.379 | 0.539 | 0.44 | 0.365 | 0.451 | 0.406 | 0.47 | 0.357 | 0.354 |
| AIFRRYSKFFD [SH3PXD2B_Y45_YF] | 0.56 | 0.475 | 0.572 | 1.13 | 0.408 | 0.773 | 0.598 | 0.565 | 1.04 | 0.582 | 0.572 | 0.626 | 0.54 | 0.587 | 0.526 | 1.03 |
| FAELVYTVFWH [ASS1_Y322_G324V] | 1.1 | 0.713 | 1.05 | 1.63 | 6.19 | 12.5 | 4.39 | 2.94 | 2.27 | 7.64 | 8.06 | 7.17 | 5.47 | 3.34 | 2.33 | 2.15 |
| ADCRFYAFPQM [GAMT_Y223_YF] | 0.778 | 0.526 | 0.653 | 1.57 | 6.04 | 2.39 | 0.719 | 3.79 | 1.45 | 0.76 | 7.18 | 1.35 | 0.92 | 1.03 | 3.25 | 2.44 |
| QPRDIYHQTWA [GBA_Y244_G241R] | 0.945 | 0.709 | 0.942 | 0.913 | 0.526 | 1.15 | 2.91 | 0.627 | 0.787 | 1.77 | 3.54 | 1.99 | 2.72 | 1.38 | 0.574 | 0.821 |
| EIEFLYNENMV [IARS1_Y680_T684M] | 0.727 | 0.592 | 0.882 | 1.11 | 0.526 | 0.62 | 0.418 | 0.678 | 1.07 | 0.484 | 0.411 | 0.421 | 0.526 | 0.693 | 0.595 | 1.21 |
| SASWTYVRWFD [PTDSS1_Y274_P269S] | 0.997 | 0.638 | 0.938 | 1.26 | 0.487 | 0.905 | 0.677 | 0.766 | 1.22 | 0.501 | 0.445 | 0.626 | 0.64 | 0.854 | 0.835 | 1.08 |
| LMFPDYLPCSV [SAG_Y129_T125M] | 0.921 | 0.57 | 0.704 | 1.55 | 1.19 | 0.985 | 7.55 | 0.92 | 3.69 | 0.743 | 0.486 | 0.772 | 0.604 | 4.58 | 1.07 | 2.76 |
| ELANFYKLHHI [AK7_Y391_YF] | 0.901 | 0.481 | 1.01 | 1.06 | 0.874 | 0.8 | 0.561 | 0.863 | 0.922 | 0.689 | 0.67 | 0.819 | 0.796 | 0.672 | 0.638 | 0.63 |
| DASENYFVTDS [TMEM240_Y77] | 0.977 | 0.576 | 0.759 | 1.23 | 0.517 | 0.86 | 1.35 | 0.886 | 1.37 | 0.444 | 0.516 | 0.492 | 0.659 | 1.44 | 1.44 | 1.41 |
| LLRLAYLADVF [ZBED5_Y476_I480V] | 1.97 | 1.82 | 2.41 | 1.19 | 0.633 | 0.704 | 0.577 | 0.583 | 0.924 | 0.484 | 0.537 | 0.47 | 0.628 | 0.725 | 0.74 | 1.18 |
| QKPLGYYRVNL [GALE_Y104_D103G] | 1.27 | 0.961 | 1.3 | 0.641 | 0.51 | 0.455 | 0.636 | 0.482 | 2.37 | 0.528 | 0.516 | 0.386 | 0.497 | 0.826 | 0.445 | 0.667 |
| NVKGIYAVADV [GSR_Y371_G374A] | 0.826 | 1.44 | 0.599 | 0.82 | 2.06 | 16.5 | 0.506 | 3.77 | 0.678 | 3.67 | 6.08 | 3.12 | 3.79 | 0.687 | 2.06 | 0.977 |
| GKVFVYHGSSL [ITGA7_Y458_I457V] | 1.06 | 0.638 | 0.64 | 1.06 | 0.476 | 0.563 | 0.514 | 0.523 | 0.674 | 0.449 | 0.435 | 0.349 | 0.434 | 0.676 | 0.564 | 1.03 |

| Sequence | SH2 binding enrichment (Grb2 SH2) | SH2 binding enrichment (c-Src SH2) | SH2 binding enrichment (SHP2-C SH2) | phosphorylation enrichment (Fes) | phosphorylation enrichment (Fer (mouse)) | phosphorylation enrichment (c-Abl (mouse)) | phosphorylation enrichment (FGFR1) | phosphorylation enrichment (EPHB2) | phosphorylation enrichment (Jak2) | phosphorylation enrichment (Fyn) | phosphorylation enrichment (MERTK) | phosphorylation enrichment (c-Src) | phosphorylation enrichment (Hck) | phosphorylation enrichment (FGFR3) | phosphorylation enrichment (EPHB1) | phosphorylation enrichment (AncSZ) |
| --- | --- | --- | --- | --- | --- | --- | --- | --- | --- | --- | --- | --- | --- | --- | --- | --- |
| NFRTTYINANE [KCNH2_Y475_V476I] | 5.07 | 0.745 | 1.34 | 0.819 | 0.383 | 0.711 | 0.528 | 0.435 | 0.843 | 0.412 | 0.476 | 0.584 | 0.462 | 0.506 | 0.566 | 0.733 |
| KSEMSCIDGEK [SORBS1_Y485_Y485C] | 1.03 | 0.585 | 0.855 | 1.06 | 0.44 | 0.793 | 0.522 | 0.567 | 0.658 | 0.431 | 0.406 | 0.423 | 0.447 | 0.686 | 0.491 | 0.862 |
| KTEMLYHLTAR [XRCC2_Y59] | 0.903 | 0.676 | 0.773 | 0.982 | 0.419 | 0.897 | 0.821 | 0.541 | 0.928 | 0.73 | 2.06 | 0.965 | 0.977 | 0.858 | 0.53 | 1.09 |
| DLREKYMDCGG [HAP1_Y440] | 0.938 | 0.668 | 0.596 | 1.1 | 0.586 | 0.738 | 0.507 | 0.625 | 0.913 | 0.499 | 0.442 | 0.389 | 0.55 | 0.726 | 0.716 | 0.919 |
| SQAPGYSYTAA [CYCS_Y47_G42S] | 0.763 | 1.07 | 0.631 | 0.666 | 0.499 | 0.708 | 0.593 | 0.408 | 0.765 | 0.454 | 0.45 | 0.594 | 0.422 | 0.43 | 0.466 | 0.637 |
| RVYRDYVLKSA [HTATIP2_Y111_D108Y] | 0.959 | 0.481 | 0.612 | 1.05 | 0.493 | 0.624 | 0.833 | 0.76 | 0.836 | 0.645 | 0.693 | 0.794 | 0.841 | 0.825 | 1.01 | 1.07 |
| QITQVYGFFDE [PPP2CA_Y127_YF] | 0.898 | 0.726 | 0.841 | 1.81 | 1.39 | 1.06 | 0.836 | 0.97 | 1.33 | 14.9 | 2.32 | 8.8 | 6.92 | 1.08 | 1.28 | 1.81 |
| HDRNTYEKFLG [TF_Y666_YF] | 1.11 | 0.882 | 0.797 | 1.33 | 0.378 | 0.99 | 0.484 | 0.951 | 1.29 | 2.42 | 0.936 | 2.82 | 1.44 | 0.751 | 0.525 | 1.17 |
| LEQRPYRRESE [KCNJ12_Y427] | 0.621 | 0.267 | 0.945 | 1.01 | 0.367 | 0.519 | 0.333 | 0.643 | 0.461 | 0.91 | 0.618 | 0.385 | 0.52 | 0.666 | 0.591 | 0.746 |
| EREFKYGAHNH [OAT_Y50_Y55H_YF] | 0.788 | 0.465 | 0.856 | 0.545 | 0.441 | 0.44 | 0.336 | 0.228 | 0.376 | 0.307 | 0.439 | 0.319 | 0.29 | 0.368 | 0.474 | 0.524 |
| LPPGTYPSDFA [UNC5B_Y511] | 0.84 | 0.369 | 0.714 | 0.96 | 0.5 | 0.565 | 0.543 | 0.412 | 0.791 | 0.451 | 0.424 | 0.422 | 0.461 | 0.595 | 0.482 | 0.744 |
| PSQRPYVFFFS [PTEN_Y174_R173P_YF] | 1.53 | 1.42 | 1.3 | 1.51 | 0.693 | 1.25 | 2.12 | 0.559 | 1.21 | 0.605 | 0.755 | 0.973 | 0.439 | 1.14 | 0.726 | 1.27 |
| ETMNKYHLSGR [MYEF2_Y164_D165H] | 0.667 | 0.426 | 0.627 | 0.53 | 0.357 | 0.398 | 0.432 | 0.355 | 0.422 | 0.343 | 0.385 | 0.375 | 0.467 | 0.367 | 0.332 | 0.539 |
| PFTRNYYVRAV [CYBA_Y87] | 0.799 | 0.615 | 1.21 | 1.29 | 0.422 | 0.747 | 0.704 | 1.41 | 0.85 | 0.614 | 0.608 | 0.558 | 0.666 | 0.792 | 0.753 | 1.16 |
| CTTIHYNYMCS [TP53_Y234_N239S] | 1.43 | 4.92 | 2.75 | 0.835 | 0.713 | 0.715 | 0.647 | 0.62 | 0.636 | 0.44 | 0.545 | 0.538 | 0.531 | 0.639 | 0.992 | 0.848 |
| KHMADYPDCKF [SOX11_Y113_Y116C_YF] | 1.18 | 0.573 | 0.859 | 1.04 | 0.495 | 0.703 | 0.587 | 0.556 | 0.879 | 0.423 | 0.456 | 0.397 | 0.475 | 0.74 | 0.532 | 0.92 |
